B1: untagged p16INK4a [not stated] / GSTCDK4 [human] (parent complex)
chain 1: MEPAAGSSMEPSADWLATAAARGRVEEVRALLEAGALPNAPNSYGRRPIQVMMMGSARVAELLLLHGAEPNCADPATLTRPVHDAAREGFLDTLVVLHRAGARLDVRDAWGRLPVDLAEELGHRDVARYLRAAAGGTRGSNHARIDAAEGPSDIPD
chain 2: MATSRYEPVAEIGVGAYGTVYKARDPHSGHFVALKSVRVPNGGGGGGGLPISTVREVALLRRLEAFEHPNVVRLMDVCATSRTDREIKVTLVFEHVDQDLRTYLDKAPPPGLPAETIKDLMRQFLRGLDFLHANCIVHRDLKPENILVTSGGTVKLADFGLARIYSYQMALTPVVVTLWYRAPEVLLQSTYATPVDMWSVGCIFAEMFRRKPLFCGNSEADQLGKIFDLIGLPPEDDWPRDVSLPRGAFPPRGPRPVQSVVPEMEESGAQLLLEMLTFNPHKRISAFRALQHSYLHKDEGNPE

Drawing on paper PMC5681435 (2017), this text covers response for one variant.

Variants of B1 are the subject of the test. Nature of the test: HTRF displacement assay; CDK4 8 nM; value read at the highest [INK] point, about 500 nM; read off a plot. On the technique in general: TR-FRET usually uses a lanthanide donor and a delayed reading to cut background.
Regarding chain 1 D84N, the response is approximately 58 % Inhibition.
